From patent US20150079071A1, “NON-CATALYTIC DOMAIN TARGETS IN MATRIX METALLOPROTEASE PROTEINS FOR CANCER THERAPIES” (THE REGENTS OF THE UNIVERSITY OF CALIFORNIA, priority 2012, published 2015)

Columns and labels:
[1] = biological target: myristoylated alanine-rich C-kinase substrate (MARCKS), endogenous, in conditioned medium of SCp2 cells (mouse) (UniProt P26645); assay: anti-Flag IP from conditioned medium, LC-MS/MS spectra counts; selection criterion that MARCKS passed
[2] = biological target: annexin A2 (ANXA2), endogenous, in conditioned medium of SCp2 cells (mouse) (UniProt P07356); assay: anti-Flag IP from conditioned medium, LC-MS/MS spectra counts; selection criterion that ANXA2 passed
annexin A2 (ANXA2), endogenous, in conditioned medium of SCp2 cells (mouse), sequence (P07356 2-339 limits assumed): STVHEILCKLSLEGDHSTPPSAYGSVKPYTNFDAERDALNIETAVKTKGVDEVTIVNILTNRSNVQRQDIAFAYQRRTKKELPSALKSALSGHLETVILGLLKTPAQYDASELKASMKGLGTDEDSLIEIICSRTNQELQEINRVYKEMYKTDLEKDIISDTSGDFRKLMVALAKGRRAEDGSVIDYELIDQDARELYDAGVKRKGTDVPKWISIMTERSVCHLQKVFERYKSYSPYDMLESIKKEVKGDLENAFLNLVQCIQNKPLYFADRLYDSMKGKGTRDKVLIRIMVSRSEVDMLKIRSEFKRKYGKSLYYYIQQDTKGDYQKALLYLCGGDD

myristoylated alanine-rich C-kinase substrate (MARCKS), endogenous, in conditioned medium of SCp2 cells (mouse), sequence (P26645 2-309 limits assumed): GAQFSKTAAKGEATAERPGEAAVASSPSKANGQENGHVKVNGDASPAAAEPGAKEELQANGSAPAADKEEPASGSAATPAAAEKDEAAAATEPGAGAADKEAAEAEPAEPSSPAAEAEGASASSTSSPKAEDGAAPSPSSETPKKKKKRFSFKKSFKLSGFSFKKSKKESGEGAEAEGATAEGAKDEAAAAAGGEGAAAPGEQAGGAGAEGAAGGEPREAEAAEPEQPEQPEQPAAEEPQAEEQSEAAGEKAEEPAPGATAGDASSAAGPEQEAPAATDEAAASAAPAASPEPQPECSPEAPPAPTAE

fold change of abundance (spectra counts) in FL compared with dPEX [1]: > 1.5 fold
fold change of abundance (spectra counts) in FL compared with dPEX [2]: > 1.5 fold
Substance: Flag-tagged full-length human MMP3 (FL) (from UniProt P08254 18-477) (enzyme)
